Measurements published in the Human Domainome abundance scans (Beltran et al. 2025).
± gives the uncertainty stated by the source.

B1: Peroxisome proliferator-activated receptor delta, residues 71 to 145; numbered along this chain, Q03181 (parent)
chain: NMECRVCGDKASGFHYGVHACEGCKGFFRRTIRMKLEYEKCERSCKIQKKNRNKCQYCRFQKCLALGMSHNAIRF

Variants of: B1
Test: abundance fitness (aPCA) (normalised: wild type 0, dead -1); higher = more abundant; growth selection in yeast, the domain comes from the species named
Settings: Homo sapiens

**Q.** With NMECRVCGDKASGFHYGVHACEGCKGFFRRTIRMKLEYEKCERSCKIQKRNRNKCQYCRFQKCLALGMSHNAIRF as the variant, how does the abundance fitness read?
**A.** -0.06 ± 0.035

**Q.** With NMECRVCGDKASGFHYGVHACEGCKGFFRRTIRMKLEYEKCERSCKIQKYNRNKCQYCRFQKCLALGMSHNAIRF as the variant, how does the abundance fitness read?
**A.** -0.295 ± 0.13

**Q.** For NMECRVCGDKASGFHYGVHACEGCKGFFRRTIRMKLEYEKCERSCKIQKPNRNKCQYCRFQKCLALGMSHNAIRF, which abundance fitness is on record?
**A.** -0.089 ± 0.071

**Q.** Which abundance fitness does the source give for NMECRVCGDKASGFHYGVHACEGCKGFFRRTIRMKLEYEKCERSCKIQKNNRNKCQYCRFQKCLALGMSHNAIRF here?
**A.** 0.147 ± 0.085

**Q.** For NMECRVCGDKASGFHYGVHACEGCKGFFRRTIRMKLEYEKCERSCKIQKFNRNKCQYCRFQKCLALGMSHNAIRF, which abundance fitness is on record?
**A.** 0.07 ± 0.17

**Q.** With NMECRVCGDKASGFHYGVHACEGCKGFFRRTIRMKLEYEKCERSCKIQKSNRNKCQYCRFQKCLALGMSHNAIRF as the variant, how does the abundance fitness read?
**A.** -0.046 ± 0.048

**Q.** For NMECRVCGDKASGFHYGVHACEGCKGFFRRTIRMKLEYEKCERSCKIQKMNRNKCQYCRFQKCLALGMSHNAIRF, which abundance fitness is on record?
**A.** 0.034 ± 0.054

**Q.** For NMECRVCGDKASGFHYGVHACEGCKGFFRRTIRMKLEYEKCERSCKIQKTNRNKCQYCRFQKCLALGMSHNAIRF, which abundance fitness is on record?
**A.** -0.018 ± 0.051

**Q.** Which abundance fitness does the source give for NMECRVCGDKASGFHYGVHACEGCKGFFRRTIRMKLEYEKCERSCKIQKENRNKCQYCRFQKCLALGMSHNAIRF here?
**A.** 0.111 ± 0.045

**Q.** With NMECRVCGDKASGFHYGVHACEGCKGFFRRTIRMKLEYEKCERSCKIQKINRNKCQYCRFQKCLALGMSHNAIRF as the variant, how does the abundance fitness read?
**A.** 0.132 ± 0.095

**Q.** With NMECRVCGDKASGFHYGVHACEGCKGFFRRTIRMKLEYEKCERSCKIQKDNRNKCQYCRFQKCLALGMSHNAIRF as the variant, how does the abundance fitness read?
**A.** 0.094 ± 0.059

**Q.** Which abundance fitness does the source give for NMECRVCGDKASGFHYGVHACEGCKGFFRRTIRMKLEYEKCERSCKIQKVNRNKCQYCRFQKCLALGMSHNAIRF here?
**A.** -0.129 ± 0.041

**Q.** For NMECRVCGDKASGFHYGVHACEGCKGFFRRTIRMKLEYEKCERSCKIQKWNRNKCQYCRFQKCLALGMSHNAIRF, which abundance fitness is on record?
**A.** -0.056 ± 0.042

**Q.** For NMECRVCGDKASGFHYGVHACEGCKGFFRRTIRMKLEYEKCERSCKIQKQNRNKCQYCRFQKCLALGMSHNAIRF, which abundance fitness is on record?
**A.** 0.077 ± 0.056

**Q.** For NMECRVCGDKASGFHYGVHACEGCKGFFRRTIRMKLEYEKCERSCKIQKLNRNKCQYCRFQKCLALGMSHNAIRF, which abundance fitness is on record?
**A.** -0.069 ± 0.042

**Q.** With NMECRVCGDKASGFHYGVHACEGCKGFFRRTIRMKLEYEKCERSCKIQKCNRNKCQYCRFQKCLALGMSHNAIRF as the variant, how does the abundance fitness read?
**A.** -0.164 ± 0.066

**Q.** For NMECRVCGDKASGFHYGVHACEGCKGFFRRTIRMKLEYEKCERSCKIQKANRNKCQYCRFQKCLALGMSHNAIRF, which abundance fitness is on record?
**A.** 0.06 ± 0.036

**Q.** With NMECRVCGDKASGFHYGVHACEGCKGFFRRTIRMKLEYEKCERSCKIQVKNRNKCQYCRFQKCLALGMSHNAIRF as the variant, how does the abundance fitness read?
**A.** 0.066 ± 0.12

**Q.** With NMECRVCGDKASGFHYGVHACEGCKGFFRRTIRMKLEYEKCERSCKIQTKNRNKCQYCRFQKCLALGMSHNAIRF as the variant, how does the abundance fitness read?
**A.** 0.023 ± 0.18

**Q.** For NMECRVCGDKASGFHYGVHACEGCKGFFRRTIRMKLEYEKCERSCKIQWKNRNKCQYCRFQKCLALGMSHNAIRF, which abundance fitness is on record?
**A.** 0.006 ± 0.16

**Q.** With NMECRVCGDKASGFHYGVHACEGCKGFFRRTIRMKLEYEKCERSCKIQKKCRNKCQYCRFQKCLALGMSHNAIRF as the variant, how does the abundance fitness read?
**A.** -0.451 ± 0.12

**Q.** With NMECRVCGDKASGFHYGVHACEGCKGFFRRTIRMKLEYEKCERSCKIQKKPRNKCQYCRFQKCLALGMSHNAIRF as the variant, how does the abundance fitness read?
**A.** -0.307 ± 0.099

**Q.** Which abundance fitness does the source give for NMECRVCGDKASGFHYGVHACEGCKGFFRRTIRMKLEYEKCERSCKIQKKERNKCQYCRFQKCLALGMSHNAIRF here?
**A.** 0.055 ± 0.039

**Q.** Which abundance fitness does the source give for NMECRVCGDKASGFHYGVHACEGCKGFFRRTIRMKLEYEKCERSCKIQKKGRNKCQYCRFQKCLALGMSHNAIRF here?
**A.** -0.129 ± 0.033

**Q.** For NMECRVCGDKASGFHYGVHACEGCKGFFRRTIRMKLEYEKCERSCKIQKKTRNKCQYCRFQKCLALGMSHNAIRF, which abundance fitness is on record?
**A.** -0.002 ± 0.062

**Q.** With NMECRVCGDKASGFHYGVHACEGCKGFFRRTIRMKLEYEKCERSCKIQKKMRNKCQYCRFQKCLALGMSHNAIRF as the variant, how does the abundance fitness read?
**A.** -0.026 ± 0.072

**Q.** For NMECRVCGDKASGFHYGVHACEGCKGFFRRTIRMKLEYEKCERSCKIQKKSRNKCQYCRFQKCLALGMSHNAIRF, which abundance fitness is on record?
**A.** -0.052 ± 0.048

**Q.** Which abundance fitness does the source give for NMECRVCGDKASGFHYGVHACEGCKGFFRRTIRMKLEYEKCERSCKIQKKRRNKCQYCRFQKCLALGMSHNAIRF here?
**A.** -0.395 ± 0.055

**Q.** For NMECRVCGDKASGFHYGVHACEGCKGFFRRTIRMKLEYEKCERSCKIQKKKRNKCQYCRFQKCLALGMSHNAIRF, which abundance fitness is on record?
**A.** -0.212 ± 0.065

**Q.** Which abundance fitness does the source give for NMECRVCGDKASGFHYGVHACEGCKGFFRRTIRMKLEYEKCERSCKIQKKLRNKCQYCRFQKCLALGMSHNAIRF here?
**A.** -0.133 ± 0.054

**Q.** With NMECRVCGDKASGFHYGVHACEGCKGFFRRTIRMKLEYEKCERSCKIQKKIRNKCQYCRFQKCLALGMSHNAIRF as the variant, how does the abundance fitness read?
**A.** -0.016 ± 0.1

**Q.** Which abundance fitness does the source give for NMECRVCGDKASGFHYGVHACEGCKGFFRRTIRMKLEYEKCERSCKIQKKVRNKCQYCRFQKCLALGMSHNAIRF here?
**A.** -0.17 ± 0.043

**Q.** For NMECRVCGDKASGFHYGVHACEGCKGFFRRTIRMKLEYEKCERSCKIQKKFRNKCQYCRFQKCLALGMSHNAIRF, which abundance fitness is on record?
**A.** -0.028 ± 0.12

**Q.** For NMECRVCGDKASGFHYGVHACEGCKGFFRRTIRMKLEYEKCERSCKIQKKDRNKCQYCRFQKCLALGMSHNAIRF, which abundance fitness is on record?
**A.** 0.086 ± 0.053

**Q.** With NMECRVCGDKASGFHYGVHACEGCKGFFRRTIRMKLEYEKCERSCKIQKKQRNKCQYCRFQKCLALGMSHNAIRF as the variant, how does the abundance fitness read?
**A.** -0.042 ± 0.063

**Q.** With NMECRVCGDKASGFHYGVHACEGCKGFFRRTIRMKLEYEKCERSCKIQKKHRNKCQYCRFQKCLALGMSHNAIRF as the variant, how does the abundance fitness read?
**A.** -0.071 ± 0.089

**Q.** For NMECRVCGDKASGFHYGVHACEGCKGFFRRTIRMKLEYEKCERSCKIQKKARNKCQYCRFQKCLALGMSHNAIRF, which abundance fitness is on record?
**A.** -0.154 ± 0.043
